In PMC2645002 one finds % of recovery data, which are given here for 1 substance.

In the test the target is miniCD4 CD4M48, biotinylated at Lys11. The experiment in a line: pull-down.

As to “HIV-1 envelope glycoprotein gp120SF162 (monomer) (natural protein)”, the % of recovery worked out at 55.8%.
